In the assay the target is HRgpA-6H (Porphyromonas gingivalis) (UniProt P28784). Kind of assay: ELISA, coated HRgpA-6H. On the technique in general: ELISA stands for enzyme-linked immunosorbent assay.

“And” between values parts separate entries of the source, which are not always exact repeats. Identical values can stand only once.

Chain of UniProt P28784 (P28784 228-860 limits assumed): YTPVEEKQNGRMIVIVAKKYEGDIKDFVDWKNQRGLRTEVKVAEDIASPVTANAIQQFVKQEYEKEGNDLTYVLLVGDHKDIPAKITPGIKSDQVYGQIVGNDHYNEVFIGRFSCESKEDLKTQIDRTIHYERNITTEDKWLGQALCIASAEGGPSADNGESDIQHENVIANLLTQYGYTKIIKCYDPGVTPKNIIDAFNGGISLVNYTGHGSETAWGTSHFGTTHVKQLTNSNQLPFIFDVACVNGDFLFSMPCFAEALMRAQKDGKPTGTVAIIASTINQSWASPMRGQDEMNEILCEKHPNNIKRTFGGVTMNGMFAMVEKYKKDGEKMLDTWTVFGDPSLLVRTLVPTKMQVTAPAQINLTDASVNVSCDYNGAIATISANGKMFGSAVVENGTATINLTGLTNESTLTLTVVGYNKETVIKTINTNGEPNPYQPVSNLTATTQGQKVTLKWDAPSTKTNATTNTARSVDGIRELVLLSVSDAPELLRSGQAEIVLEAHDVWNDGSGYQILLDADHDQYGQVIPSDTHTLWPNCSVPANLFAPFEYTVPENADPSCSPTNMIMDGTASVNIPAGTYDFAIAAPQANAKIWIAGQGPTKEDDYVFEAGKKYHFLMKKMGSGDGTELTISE

B1: KB001 mouse Fab VH S28L (Fab, V domains shown)
VH: EVQLKQSGPGLVAPSQSLSITCTVSGFLLSIYSVHWVRQPPGKGLEWLGMIWGGGSSDYNSALKSRLSISKDNSKSQVFLKMNSLQTDDTAMYYCARNGNFYAMDYWGQGTSVTVSS
VL: QIVLTQSPAIMSASLGERVTMTCTASSSVSSSFLHWYQQKPGSSPQLWIYSTSNLASGVPARFSGSGSGTSYSLTISSMEAEDAATYYCHQYHHSPYIYTFGGGTKLEIK
In the case of B1, the OD450 nm is 0.435 and 0.468; the Ratio OD(Variant)/OD(WT) is 0.806 and 0.867.

B2: KB001 mouse Fab VH S28N (Fab, V domains shown)
VH: EVQLKQSGPGLVAPSQSLSITCTVSGFNLSIYSVHWVRQPPGKGLEWLGMIWGGGSSDYNSALKSRLSISKDNSKSQVFLKMNSLQTDDTAMYYCARNGNFYAMDYWGQGTSVTVSS
VL: QIVLTQSPAIMSASLGERVTMTCTASSSVSSSFLHWYQQKPGSSPQLWIYSTSNLASGVPARFSGSGSGTSYSLTISSMEAEDAATYYCHQYHHSPYIYTFGGGTKLEIK
Regarding B2, the OD450 nm stood at 0.53 and the Ratio OD(Variant)/OD(WT) turned out to be 0.981.

B3: KB001 mouse Fab VH I31E (Fab, V domains shown)
VH: EVQLKQSGPGLVAPSQSLSITCTVSGFSLSEYSVHWVRQPPGKGLEWLGMIWGGGSSDYNSALKSRLSISKDNSKSQVFLKMNSLQTDDTAMYYCARNGNFYAMDYWGQGTSVTVSS
VL: QIVLTQSPAIMSASLGERVTMTCTASSSVSSSFLHWYQQKPGSSPQLWIYSTSNLASGVPARFSGSGSGTSYSLTISSMEAEDAATYYCHQYHHSPYIYTFGGGTKLEIK
As for B3, the OD450 nm is 0.42 and 0.458 and 0.428; the Ratio OD(Variant)/OD(WT) was 0.833 and 0.908 and 0.848.

B4: KB001 mouse Fab VH S30H (Fab, V domains shown)
VH: EVQLKQSGPGLVAPSQSLSITCTVSGFSLHIYSVHWVRQPPGKGLEWLGMIWGGGSSDYNSALKSRLSISKDNSKSQVFLKMNSLQTDDTAMYYCARNGNFYAMDYWGQGTSVTVSS
VL: QIVLTQSPAIMSASLGERVTMTCTASSSVSSSFLHWYQQKPGSSPQLWIYSTSNLASGVPARFSGSGSGTSYSLTISSMEAEDAATYYCHQYHHSPYIYTFGGGTKLEIK
Consider B4, for which the OD450 nm was found to be 0.482 and the Ratio OD(Variant)/OD(WT) was determined as 0.955.

B5: KB001 mouse Fab VH L29P (Fab, V domains shown)
VH: EVQLKQSGPGLVAPSQSLSITCTVSGFSPSIYSVHWVRQPPGKGLEWLGMIWGGGSSDYNSALKSRLSISKDNSKSQVFLKMNSLQTDDTAMYYCARNGNFYAMDYWGQGTSVTVSS
VL: QIVLTQSPAIMSASLGERVTMTCTASSSVSSSFLHWYQQKPGSSPQLWIYSTSNLASGVPARFSGSGSGTSYSLTISSMEAEDAATYYCHQYHHSPYIYTFGGGTKLEIK
On to B5, for which the OD450 nm is 0.468 and the Ratio OD(Variant)/OD(WT) came out at 0.867.

B6: KB001 mouse Fab VH S30T (Fab, V domains shown)
VH: EVQLKQSGPGLVAPSQSLSITCTVSGFSLTIYSVHWVRQPPGKGLEWLGMIWGGGSSDYNSALKSRLSISKDNSKSQVFLKMNSLQTDDTAMYYCARNGNFYAMDYWGQGTSVTVSS
VL: QIVLTQSPAIMSASLGERVTMTCTASSSVSSSFLHWYQQKPGSSPQLWIYSTSNLASGVPARFSGSGSGTSYSLTISSMEAEDAATYYCHQYHHSPYIYTFGGGTKLEIK
Turning to B6, the OD450 nm was 0.457 and the Ratio OD(Variant)/OD(WT) is 0.906.

B7: KB001 mouse Fab VH S30R (Fab, V domains shown)
VH: EVQLKQSGPGLVAPSQSLSITCTVSGFSLRIYSVHWVRQPPGKGLEWLGMIWGGGSSDYNSALKSRLSISKDNSKSQVFLKMNSLQTDDTAMYYCARNGNFYAMDYWGQGTSVTVSS
VL: QIVLTQSPAIMSASLGERVTMTCTASSSVSSSFLHWYQQKPGSSPQLWIYSTSNLASGVPARFSGSGSGTSYSLTISSMEAEDAATYYCHQYHHSPYIYTFGGGTKLEIK
For the molecule B7, the OD450 nm stood at 0.481 and the Ratio OD(Variant)/OD(WT) was determined as 0.953.

B8: KB001 mouse Fab VH S30F (Fab, V domains shown)
VH: EVQLKQSGPGLVAPSQSLSITCTVSGFSLFIYSVHWVRQPPGKGLEWLGMIWGGGSSDYNSALKSRLSISKDNSKSQVFLKMNSLQTDDTAMYYCARNGNFYAMDYWGQGTSVTVSS
VL: QIVLTQSPAIMSASLGERVTMTCTASSSVSSSFLHWYQQKPGSSPQLWIYSTSNLASGVPARFSGSGSGTSYSLTISSMEAEDAATYYCHQYHHSPYIYTFGGGTKLEIK
B8: the OD450 nm amounted to 0.438 and the Ratio OD(Variant)/OD(WT) is 0.868.

B9: KB001 mouse Fab VH S30Q (Fab, V domains shown)
VH: EVQLKQSGPGLVAPSQSLSITCTVSGFSLQIYSVHWVRQPPGKGLEWLGMIWGGGSSDYNSALKSRLSISKDNSKSQVFLKMNSLQTDDTAMYYCARNGNFYAMDYWGQGTSVTVSS
VL: QIVLTQSPAIMSASLGERVTMTCTASSSVSSSFLHWYQQKPGSSPQLWIYSTSNLASGVPARFSGSGSGTSYSLTISSMEAEDAATYYCHQYHHSPYIYTFGGGTKLEIK
On to B9, for which the OD450 nm is 0.47 and 0.483; the Ratio OD(Variant)/OD(WT) is 0.932 and 0.957.

B10: KB001 mouse Fab VH S30W (Fab, V domains shown)
VH: EVQLKQSGPGLVAPSQSLSITCTVSGFSLWIYSVHWVRQPPGKGLEWLGMIWGGGSSDYNSALKSRLSISKDNSKSQVFLKMNSLQTDDTAMYYCARNGNFYAMDYWGQGTSVTVSS
VL: QIVLTQSPAIMSASLGERVTMTCTASSSVSSSFLHWYQQKPGSSPQLWIYSTSNLASGVPARFSGSGSGTSYSLTISSMEAEDAATYYCHQYHHSPYIYTFGGGTKLEIK
Take B10: the OD450 nm came out at 0.469 and the Ratio OD(Variant)/OD(WT) amounted to 0.93.

B11: KB001 mouse Fab VH L29T (Fab, V domains shown)
VH: EVQLKQSGPGLVAPSQSLSITCTVSGFSTSIYSVHWVRQPPGKGLEWLGMIWGGGSSDYNSALKSRLSISKDNSKSQVFLKMNSLQTDDTAMYYCARNGNFYAMDYWGQGTSVTVSS
VL: QIVLTQSPAIMSASLGERVTMTCTASSSVSSSFLHWYQQKPGSSPQLWIYSTSNLASGVPARFSGSGSGTSYSLTISSMEAEDAATYYCHQYHHSPYIYTFGGGTKLEIK
B11: the OD450 nm was 0.502 and 0.512 and 0.501; the Ratio OD(Variant)/OD(WT) is 0.93 and 0.948 and 0.928.

B12: KB001 mouse Fab VH L29V (Fab, V domains shown)
VH: EVQLKQSGPGLVAPSQSLSITCTVSGFSVSIYSVHWVRQPPGKGLEWLGMIWGGGSSDYNSALKSRLSISKDNSKSQVFLKMNSLQTDDTAMYYCARNGNFYAMDYWGQGTSVTVSS
VL: QIVLTQSPAIMSASLGERVTMTCTASSSVSSSFLHWYQQKPGSSPQLWIYSTSNLASGVPARFSGSGSGTSYSLTISSMEAEDAATYYCHQYHHSPYIYTFGGGTKLEIK
Turning to B12, the OD450 nm is 0.446 and the Ratio OD(Variant)/OD(WT) worked out at 0.826.

B13: KB001 mouse Fab VH S30M (Fab, V domains shown)
VH: EVQLKQSGPGLVAPSQSLSITCTVSGFSLMIYSVHWVRQPPGKGLEWLGMIWGGGSSDYNSALKSRLSISKDNSKSQVFLKMNSLQTDDTAMYYCARNGNFYAMDYWGQGTSVTVSS
VL: QIVLTQSPAIMSASLGERVTMTCTASSSVSSSFLHWYQQKPGSSPQLWIYSTSNLASGVPARFSGSGSGTSYSLTISSMEAEDAATYYCHQYHHSPYIYTFGGGTKLEIK
B13: the OD450 nm came to 0.437 and the Ratio OD(Variant)/OD(WT) worked out at 0.866.

B14: KB001 mouse Fab VH S30K (Fab, V domains shown)
VH: EVQLKQSGPGLVAPSQSLSITCTVSGFSLKIYSVHWVRQPPGKGLEWLGMIWGGGSSDYNSALKSRLSISKDNSKSQVFLKMNSLQTDDTAMYYCARNGNFYAMDYWGQGTSVTVSS
VL: QIVLTQSPAIMSASLGERVTMTCTASSSVSSSFLHWYQQKPGSSPQLWIYSTSNLASGVPARFSGSGSGTSYSLTISSMEAEDAATYYCHQYHHSPYIYTFGGGTKLEIK
In the case of B14, the OD450 nm was 0.46 and 0.467 and 0.493; the Ratio OD(Variant)/OD(WT) was 0.912 and 0.926 and 0.977.

B15: KB001 mouse Fab VH S28Y (Fab, V domains shown)
VH: EVQLKQSGPGLVAPSQSLSITCTVSGFYLSIYSVHWVRQPPGKGLEWLGMIWGGGSSDYNSALKSRLSISKDNSKSQVFLKMNSLQTDDTAMYYCARNGNFYAMDYWGQGTSVTVSS
VL: QIVLTQSPAIMSASLGERVTMTCTASSSVSSSFLHWYQQKPGSSPQLWIYSTSNLASGVPARFSGSGSGTSYSLTISSMEAEDAATYYCHQYHHSPYIYTFGGGTKLEIK
On to B15, for which the OD450 nm was found to be 0.437 and the Ratio OD(Variant)/OD(WT) came to 0.809.

B16: KB001 mouse Fab VH S30L (Fab, V domains shown)
VH: EVQLKQSGPGLVAPSQSLSITCTVSGFSLLIYSVHWVRQPPGKGLEWLGMIWGGGSSDYNSALKSRLSISKDNSKSQVFLKMNSLQTDDTAMYYCARNGNFYAMDYWGQGTSVTVSS
VL: QIVLTQSPAIMSASLGERVTMTCTASSSVSSSFLHWYQQKPGSSPQLWIYSTSNLASGVPARFSGSGSGTSYSLTISSMEAEDAATYYCHQYHHSPYIYTFGGGTKLEIK
Turning to B16, the OD450 nm was 0.468 and the Ratio OD(Variant)/OD(WT) came to 0.928.

B17: KB001 mouse Fab VH S28R (Fab, V domains shown)
VH: EVQLKQSGPGLVAPSQSLSITCTVSGFRLSIYSVHWVRQPPGKGLEWLGMIWGGGSSDYNSALKSRLSISKDNSKSQVFLKMNSLQTDDTAMYYCARNGNFYAMDYWGQGTSVTVSS
VL: QIVLTQSPAIMSASLGERVTMTCTASSSVSSSFLHWYQQKPGSSPQLWIYSTSNLASGVPARFSGSGSGTSYSLTISSMEAEDAATYYCHQYHHSPYIYTFGGGTKLEIK
B17: the OD450 nm amounted to 0.458 and the Ratio OD(Variant)/OD(WT) turned out to be 0.848.

B18: KB001 mouse Fab VH S28G (Fab, V domains shown)
VH: EVQLKQSGPGLVAPSQSLSITCTVSGFGLSIYSVHWVRQPPGKGLEWLGMIWGGGSSDYNSALKSRLSISKDNSKSQVFLKMNSLQTDDTAMYYCARNGNFYAMDYWGQGTSVTVSS
VL: QIVLTQSPAIMSASLGERVTMTCTASSSVSSSFLHWYQQKPGSSPQLWIYSTSNLASGVPARFSGSGSGTSYSLTISSMEAEDAATYYCHQYHHSPYIYTFGGGTKLEIK
As to B18, the OD450 nm was 0.468 and 0.486; the Ratio OD(Variant)/OD(WT) was 0.867 and 0.9.

B19: KB001 mouse Fab VH S28A (Fab, V domains shown)
VH: EVQLKQSGPGLVAPSQSLSITCTVSGFALSIYSVHWVRQPPGKGLEWLGMIWGGGSSDYNSALKSRLSISKDNSKSQVFLKMNSLQTDDTAMYYCARNGNFYAMDYWGQGTSVTVSS
VL: QIVLTQSPAIMSASLGERVTMTCTASSSVSSSFLHWYQQKPGSSPQLWIYSTSNLASGVPARFSGSGSGTSYSLTISSMEAEDAATYYCHQYHHSPYIYTFGGGTKLEIK
With B19, the OD450 nm is 0.488 and the Ratio OD(Variant)/OD(WT) came to 0.904.

For the origin of these results see patent US20240400654A1.
